Where a chain is given by its changes, count along the chain named. Numbers in names are those of the source.
B1: 97 (protein)
chain: MADLYENPMGLMGFEFIEFASPTPGTLEPIFEIMGFTKVATHRSKNVHLYRQGEINLILNNEPNSIASYFAAEHGPSVCGMAFRVKDSQKAYNRALELGAQPIHIDTGPMELNLPAIKGIGGAPLYLIDRFGEGSSIYDIDFVYLEGVERNPVGAGLKVIDHLTHNVYRGRMVYWANFYEKLFNFREARYFDIKGEYTGLTSKAMSAPDGMIRIPLNEESSKGAGQIEEFLMQFNGEGIQHVAFLTDDLVKTWDALKKIGMRFMTAPGDRYYEMLEGRLPDHGEPVDQLQARGILLDGSSVEGDKRLLLQIFSETLMGPVFFEFIQRKGHSGFGPDSFKVLFESKERDQVRRGVLTAD
modifications: mutant HPPD polypeptide
B2: 106 (protein)
chain: B1 chain with M264L, R270E, S331P, S344Q, K345M
modifications: mutant HPPD polypeptide
B3: 99 (protein)
chain: B1 chain with R270E, H330D, S331D, F338V, V340R, K345V
modifications: mutant HPPD polypeptide
B4: 102 (protein)
chain: B1 chain with M264L, G268R, R270E, T315R, H330D, S331D, D336H, S344Q, K345M
modifications: mutant HPPD polypeptide
B5: 100 (protein)
chain: B1 chain with M264L, R270E, S331D, S344Q, K345M
modifications: mutant HPPD polypeptide
B6: 107 (protein)
chain: B1 chain with R213K, R270E, H330D, S331D, D336H, F338V, V340R, K345V
modifications: mutant HPPD polypeptide
B7: SEQ ID NO: 45: mutant HPPD polypeptide: P268G T270E T315R E335P G336D N337S A340V I345V (protein)
chain: B1 chain with R270E, T315R, H330D, S331D, K345V
modifications: mutant HPPD polypeptide
notes: mutant HPPD polypeptide: P268G T270E T315R E335P G336D N337S A340V I345V
B8: SEQ ID NO: 9: mutant HPPD polypeptide: E335P G336D N337S I345V (protein)
chain: B1 chain with G268P, R270T, H330D, S331D, V340A, K345V
modifications: mutant HPPD polypeptide
notes: mutant HPPD polypeptide: E335P G336D N337S I345V
B9: SEQ ID NO: 30: mutant HPPD polypeptide: P268S T270S E335P G336H N337S A340V I345K (protein)
chain: B1 chain with G268S, R270S, H330D, S331D, D336H
modifications: mutant HPPD polypeptide
notes: mutant HPPD polypeptide: P268S T270S E335P G336H N337S A340V I345K
B10: SEQ ID NO: 34: mutant HPPD polypeptide: P268G T270E D330H E335P G336D N337S A340R I345K (protein)
chain: B1 chain with R270E, S331D, V340R
modifications: mutant HPPD polypeptide
notes: mutant HPPD polypeptide: P268G T270E D330H E335P G336D N337S A340R I345K
B11: SEQ ID NO: 21: mutant HPPD polypeptide: E335P G336H N337S (protein)
chain: B1 chain with G268P, R270T, H330D, S331D, D336H, V340A, K345I
modifications: mutant HPPD polypeptide
notes: mutant HPPD polypeptide: E335P G336H N337S
B12: SEQ ID NO: 5: mutant HPPD polypeptide: E335P N337S (protein)
chain: B1 chain with G268P, R270T, H330D, S331D, D336G, V340A, K345I
modifications: mutant HPPD polypeptide
notes: mutant HPPD polypeptide: E335P N337S
B13: SEQ ID NO: 44: mutant HPPD polypeptide: R213L P268G T270E E335P G336D N337S A340V I345V (protein)
chain: B1 chain with R213L, R270E, H330D, S331D, K345V
modifications: mutant HPPD polypeptide
notes: mutant HPPD polypeptide: R213L P268G T270E E335P G336D N337S A340V I345V
B14: SEQ ID NO: 42: mutant HPPD polypeptide: A204T P268G T270E E335P G336D N337S A340V I345V (protein)
chain: B1 chain with A204T, R270E, H330D, S331D, K345V
modifications: mutant HPPD polypeptide
notes: mutant HPPD polypeptide: A204T P268G T270E E335P G336D N337S A340V I345V

Tested on: E. coli cells expressing an HPPD polypeptide
Experiment: Brown color bioassay in liquid culture, residual brown color formation (BCF), OD440 after 96 hours
Type: cell-based
Settings: brown color formation in absence of Cmpd. 1, culture supernatant after 96 hours, 5 mM HPP
Experimental: In an additional experiment, mutant HPPD polypeptides were analyzed using the principle of a colorimetric brown color assay (as, for example, described in U.S. Pat. No. 6,768,044). Bacterial cells expressing the HPPD polypeptides according to this invention were assayed in 96 well plate format (Nunc® 96 DeepWell™ plate, Sigma-Aldrich, St. Louis, USA) for HPPD polypeptides with improved HPPD inhibitor herbicide tolerance.
E. coli cells were grown in liquid LB medium (Carl Roth GmbH+Co. KG, Karlsruhe, Germany) containing the selection agent for the expression vector pSE420(RI)NX (WO2014/043435) and 5 mM para-hydroxyphenylpyruvate (HPP; Sigma-Aldrich, St. Louis, USA), in the presence of absence of the HPPD inhibitor herbicide e.g. Cmpd. 1 (1000 μM). An overnight culture of E. coli culture expressing one of the respective HPPD polypeptides according to this invention were adjusted to an OD600 of 0.3-0.5 in a final volume of 500 μL and incubated at 30 degree Celsius. Residual brown color formation was determined by measuring the brown color formation (BCF) in the presence and absence of Cmpd. […] Therefore, after 96 hours the culture was centrifuged and the supernatant of the culture was used to measure the optical density of the soluble brown pigment formation at 440 nm (OD440 nm).

Point of comparison: B4, “Control BCF OD440nm” value 2.47. Against it:
- B1 — lower, 1.54
- B2 — lower, 1.50
- B3 — lower, 1.52
- B5 — higher, 2.48
- B6 — lower, 1.38

Same assay, conditions: brown color formation with Cmpd. 1 (1000 μM) relative to without, after 96 hours

Point of comparison: B3, “Residual BCF OD440nm [%]” value 87%. Against it:
- B1 — lower, 49%
- B2 — lower, 73%
- B4 — lower, 26%
- B5 — lower, 33%
- B6 — lower, 84%

Tested on: transgenic soybean T0 events
Experiment: Additional greenhouse trials of T0 soybean events, leaf damage score 0-100 as percentiles
Type: in vivo
Settings: Cmpd. 1 300 g AI/ha, five days; 75th minus 25th percentile
From the text: In additional greenhouse trials, 21 to 94 independent T0 soybean events per construct containing an exemplary mutant HPPD polypeptide were sprayed with the HPPD inhibitor herbicide Cmpd. […] Five days after the application, the leaf damaged area due to the HPPD inhibitor herbicide is scored in a scale from 0 (no damage) to 100 (complete bleaching). Under those conditions, the wild-type plants were completely bleached and their damage scores were in the 95-100 range.
Table 9 presents the distribution of the HPPD inhibitor herbicide damage score data as percentile for exemplary mutant HPPD inhibitor herbicide tolerant polypeptides (SEQ ID NOs). The percentiles normalize ranks of the damage score from an individual plant in a population. […] The median is the 50th percentile. Half the values had higher damage scores; half had lower damage scores. […] The difference between the 75th and 25th percentile is called the interquartile range and a marker to quantify scattering in the population. All constructs had only one single cassette insertion in the soybean genome.
In Table 9, the constructs were ranked based on injury scores according to the 75th percentile, from smallest to highest score. All exemplary HPPD polypeptide variants are better in all percentile analyses than the prior art mutant HPPD polypeptide (WO2014/043435) corresponding to SEQ ID NO:2 in this invention. The scoring of the prior art mutant HPPD polypeptide (WO2014/043435) corresponding to SEQ ID NO:2 in this invention is listed in the bottom row of Table 9.

Point of comparison: B8, “leaf damage score, Interquartile range” value 5.0. Against it:
- B7 — higher, 21.3
- B9 — the same, 5.0
- B10 — higher, 10.0
- B11 — higher, 15.0
- B12 — higher, 10.0
- B13 — higher, 11.3
- B14 — higher, 10.0

Same assay, conditions: Cmpd. 1 300 g AI/ha, five days; scale 0 (no damage) to 100 (complete bleaching)

Point of comparison: B14, “leaf damage score, 25th percentile” value 10.0. Against it:
- B7 — lower, 5.0
- B8 — the same, 10.0
- B9 — the same, 10.0
- B10 — the same, 10.0
- B11 — the same, 10.0
- B12 — the same, 10.0
- B13 — the same, 10.0

Same assay, conditions: Cmpd. 1 300 g AI/ha, five days; scale 0-100

Point of comparison: B12, “leaf damage score, 75th percentile” value 20.0. Against it:
- B7 — higher, 26.3
- B8 — lower, 15.0
- B9 — lower, 15.0
- B10 — the same, 20.0
- B11 — higher, 25.0
- B13 — higher, 21.3
- B14 — the same, 20.0

Point of comparison: B8, “leaf damage score, 90th percentile” value 19.0. Against it:
- B7 — higher, 67.5
- B9 — higher, 25.0
- B10 — higher, 70.0
- B11 — higher, 35.0
- B12 — higher, 72.0
- B13 — higher, 70.0
- B14 — higher, 75.0

Point of comparison: B9, “leaf damage score, Median” value 15.0. Against it:
- B7 — the same, 15.0
- B8 — lower, 10.0
- B10 — the same, 15.0
- B11 — the same, 15.0
- B12 — the same, 15.0
- B13 — the same, 15.0
- B14 — the same, 15.0
